Experimental data taken from patent US20240317847A1 (Bayer, published 2024).

T1: murine IL-11 (mouse, UniProt P47873 22-199)
T1 construct: bought from Invigate; also called mIL-11; mIL11
T1 sequence: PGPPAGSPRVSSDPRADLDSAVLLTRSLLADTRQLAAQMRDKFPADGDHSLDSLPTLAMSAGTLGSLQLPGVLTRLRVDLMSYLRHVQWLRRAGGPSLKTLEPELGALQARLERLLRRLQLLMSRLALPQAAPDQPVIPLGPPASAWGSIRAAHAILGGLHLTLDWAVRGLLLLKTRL

T2: human IL-11 (human, UniProt P20809 22-199)
T2 construct: bought from Invigate; also called hIL-11; hIL11
T2 sequence: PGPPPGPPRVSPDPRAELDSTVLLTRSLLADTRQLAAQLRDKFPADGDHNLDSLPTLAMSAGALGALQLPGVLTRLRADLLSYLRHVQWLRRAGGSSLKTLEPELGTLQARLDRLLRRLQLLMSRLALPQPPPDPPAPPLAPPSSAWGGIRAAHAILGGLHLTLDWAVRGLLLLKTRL

T3: murine IL-11 (Invigate, e.g., lot #C210819-09) (mouse, UniProt P47873 22-199)
T3 construct: Bought protein; biotinylated where captured on streptavidin plates; also called mIL-11; mIL11
T3 sequence: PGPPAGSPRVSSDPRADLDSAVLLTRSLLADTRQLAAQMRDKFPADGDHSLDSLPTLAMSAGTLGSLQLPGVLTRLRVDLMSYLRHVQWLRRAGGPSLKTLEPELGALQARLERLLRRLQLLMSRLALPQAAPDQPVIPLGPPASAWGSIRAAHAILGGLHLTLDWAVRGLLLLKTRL

T4: human IL-11 (Invigate, e.g., lot #C121021-19) (human, UniProt P20809 22-199)
T4 construct: Bought protein; also called hIL-11; hIL11
T4 sequence: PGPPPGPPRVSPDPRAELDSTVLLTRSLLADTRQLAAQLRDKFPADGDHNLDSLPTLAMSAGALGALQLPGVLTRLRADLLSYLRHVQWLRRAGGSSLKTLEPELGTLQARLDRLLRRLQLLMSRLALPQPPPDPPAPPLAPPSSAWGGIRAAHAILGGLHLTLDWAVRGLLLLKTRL


Legend:
[1] = biological target: T1, murine IL-11; assay: SPR, antibody captured, IL-11 as analyte
Protocol: (§1) Antibodies were captured via anti-mouse Fc IgGs (“Mouse antibody capture kit, Order No. BR100383, Cytiva) covalently amine coupled to a Series S CM5 sensor chip (Cytiva). The amine coupling was carried out according to the manufacturer's instructions using 1-ethyl-3-(3-dimethylaminopropyl) carbodiimide hydrochloride (EDC), N-hydroxysuccinimide (NHS) and ethanolamine HCl, pH 8.5 (“Amine Coupling Kit” BR-1000-50, Cytiva.). Human IL-11 (Invigate, e.g., lot #C121021-19), and murine IL-11 (Invigate, e.g., lot #C210819-09) were used as analytes. […] Based on that experiment an IL-11 concentration range was chosen to optimally determine kinetics and affinity of anti-IL-11 antibodies in multicycle kinetics mode. The sensor surface was regenerated with glycine pH 1.7 after each antigen injection. Obtained sensorgrams were double referenced (subtraction of reference flow cell signal and buffer injection) and were fitted to a 1:1 Langmuir binding model to derive kinetic data using the Biacore T200 Evaluation software or the Biacore Insight software.
(§2) Deviations from closest human germlines in CDR regions and FW regions and potential CMC relevant residues in CDR regions were adjusted by site directed mutagenesis following standard molecular protocols or purchased from DNA synthesis providers. The generated DNA constructs were expressed by transient transfection of mammalian cells and purified as described in Example 15. Antibodies were then tested for human IL-11 and murine IL-11 binding by SPR as described in Example 16.

[2] = biological target: T2, human IL-11; assay: SPR, antibody captured, IL-11 as analyte
Protocol: as §1, §2

[3] = biological target: T3, murine IL-11 (Invigate, e.g., lot …); assay: SPR, Biacore 8K; antibody captured on anti-human IgG Fc chip, IL-11 analyte 0-50 nM, 1:1 fit
Protocol: (§3) Antibody binding affinity to hIL-11 (Invigate, Germany, e.g., lot #C121021-19) and mIL-11 (Invigate, Germany, e.g., lot #C210819-09) was detected using Biacore 8K. Each antibody was captured on an anti-human IgG Fc antibody immobilized CM5 sensor chip (GE). hIL-11 and mIL-11 at different concentrations (0, 5, 15.82 and 50 nM) in 1×HBS-EP+ (pH 7.4) (GE healthcare) were injected over the sensor chip at a flow rate of 30 μL/min for an association phase of 120 s, followed by 200 s dissociation phase. The chip was then regenerated by 10 mM Glycine, pH 1.5 after each binding cycle.
(§4) The sensorgrams of blank surface and buffer channel were subtracted from the test sensorgrams. The experimental data was fitted by 1:1 model using Langmiur analysis. Molecular weight of 19.3 kDa was used to calculate the molar concentration of human and mouse IL-11.

[4] = biological target: T4, human IL-11 (Invigate, e.g., lot …); assay: as above
Protocol: as §3, §4

Kd [1] [nM] | Kd [2] [nM] | Kd [3] [nM] | Kd [4] [nM] | Binder
0.79 | 6.3 | – | – | TPP-19841 (antibody, V domains shown) VH: EVQLLESGGGLVQPGGSLRLSCAASGFTFSSYGMHWVRQAPGKGLEWVSVISYDGSYKYYADSVKGRFTISRDNSKNTLYLQMNSLRAEDTAVYYCAAGVPDYWGQGTLVTVSS VL: not shown
– | – | 14 | 8.7 | TPP-31297 (antibody, human IgG4, V domains shown, consecutive numbering; also called VL-N97Q) VH: EVQLLESGGGLVQPGGSLRLSCAASGFTFSHYDMNWLRQAPGKGLEWVGVISYDGSNKFYADFVKGRFTISRDNSKNTLYLQMNSLRAEDTAVYYCARTPGSHFDYWGQGTLVTVSS VL: QSVLTQPPSASGTPGQRVTISCSGSSSNIGNNAVNWYQQLPGTAPKLLIYYDDLLPSGVPDRFSGSKSGTSASLAISGLRSEDEADYYCSAWDDSLQGVVFGGGTKLTVL
– | – | 25 | 15 | TPP-31305 (antibody, human IgG4, V domains shown, consecutive numbering; also called VH-G55A / VL-N97Q) VH: EVQLLESGGGLVQPGGSLRLSCAASGFTFSHYDMNWLRQAPGKGLEWVGVISYDASNKFYADFVKGRFTISRDNSKNTLYLQMNSLRAEDTAVYYCARTPGSHFDYWGQGTLVTVSS VL: QSVLTQPPSASGTPGQRVTISCSGSSSNIGNNAVNWYQQLPGTAPKLLIYYDDLLPSGVPDRFSGSKSGTSASLAISGLRSEDEADYYCSAWDDSLQGVVFGGGTKLTVL
– | – | 13 | 9.3 | TPP-31298 (antibody, human IgG4, V domains shown, consecutive numbering; also called VL-N97S) VH: EVQLLESGGGLVQPGGSLRLSCAASGFTFSHYDMNWLRQAPGKGLEWVGVISYDGSNKFYADFVKGRFTISRDNSKNTLYLQMNSLRAEDTAVYYCARTPGSHFDYWGQGTLVTVSS VL: QSVLTQPPSASGTPGQRVTISCSGSSSNIGNNAVNWYQQLPGTAPKLLIYYDDLLPSGVPDRFSGSKSGTSASLAISGLRSEDEADYYCSAWDDSLSGVVFGGGTKLTVL
– | – | 2.9 | 3.6 | TPP-31301 (antibody, human IgG4, V domains shown, consecutive numbering; also called VH-D54E / VL-N97Q) VH: EVQLLESGGGLVQPGGSLRLSCAASGFTFSHYDMNWLRQAPGKGLEWVGVISYEGSNKFYADFVKGRFTISRDNSKNTLYLQMNSLRAEDTAVYYCARTPGSHFDYWGQGTLVTVSS VL: QSVLTQPPSASGTPGQRVTISCSGSSSNIGNNAVNWYQQLPGTAPKLLIYYDDLLPSGVPDRFSGSKSGTSASLAISGLRSEDEADYYCSAWDDSLQGVVFGGGTKLTVL
– | – | 58 | 87 | TPP-31311 (antibody, human IgG4, V domains shown, consecutive numbering; also called VH-G55S / VL-G98A) VH: EVQLLESGGGLVQPGGSLRLSCAASGFTFSHYDMNWLRQAPGKGLEWVGVISYDSSNKFYADFVKGRFTISRDNSKNTLYLQMNSLRAEDTAVYYCARTPGSHFDYWGQGTLVTVSS VL: QSVLTQPPSASGTPGQRVTISCSGSSSNIGNNAVNWYQQLPGTAPKLLIYYDDLLPSGVPDRFSGSKSGTSASLAISGLRSEDEADYYCSAWDDSLNAVVFGGGTKLTVL
– | – | 3.6 | 6.9 | TPP-31303 (antibody, human IgG4, V domains shown, consecutive numbering; also called VH-D54E / VL-G98A) VH: EVQLLESGGGLVQPGGSLRLSCAASGFTFSHYDMNWLRQAPGKGLEWVGVISYEGSNKFYADFVKGRFTISRDNSKNTLYLQMNSLRAEDTAVYYCARTPGSHFDYWGQGTLVTVSS VL: QSVLTQPPSASGTPGQRVTISCSGSSSNIGNNAVNWYQQLPGTAPKLLIYYDDLLPSGVPDRFSGSKSGTSASLAISGLRSEDEADYYCSAWDDSLNAVVFGGGTKLTVL
– | – | 28 | 31 | TPP-31307 (antibody, human IgG4, V domains shown, consecutive numbering; also called VH-G55A / VL-G98A) VH: EVQLLESGGGLVQPGGSLRLSCAASGFTFSHYDMNWLRQAPGKGLEWVGVISYDASNKFYADFVKGRFTISRDNSKNTLYLQMNSLRAEDTAVYYCARTPGSHFDYWGQGTLVTVSS VL: QSVLTQPPSASGTPGQRVTISCSGSSSNIGNNAVNWYQQLPGTAPKLLIYYDDLLPSGVPDRFSGSKSGTSASLAISGLRSEDEADYYCSAWDDSLNAVVFGGGTKLTVL
– | – | 3 | 3.8 | TPP-31300 (antibody, human IgG4, V domains shown, consecutive numbering; also called VH-D54E) VH: EVQLLESGGGLVQPGGSLRLSCAASGFTFSHYDMNWLRQAPGKGLEWVGVISYEGSNKFYADFVKGRFTISRDNSKNTLYLQMNSLRAEDTAVYYCARTPGSHFDYWGQGTLVTVSS VL: QSVLTQPPSASGTPGQRVTISCSGSSSNIGNNAVNWYQQLPGTAPKLLIYYDDLLPSGVPDRFSGSKSGTSASLAISGLRSEDEADYYCSAWDDSLNGVVFGGGTKLTVL
– | – | 47 | 40 | TPP-31308 (antibody, human IgG4, V domains shown, consecutive numbering; also called VH-G55S) VH: EVQLLESGGGLVQPGGSLRLSCAASGFTFSHYDMNWLRQAPGKGLEWVGVISYDSSNKFYADFVKGRFTISRDNSKNTLYLQMNSLRAEDTAVYYCARTPGSHFDYWGQGTLVTVSS VL: QSVLTQPPSASGTPGQRVTISCSGSSSNIGNNAVNWYQQLPGTAPKLLIYYDDLLPSGVPDRFSGSKSGTSASLAISGLRSEDEADYYCSAWDDSLNGVVFGGGTKLTVL
– | – | 3.2 | 3.8 | TPP-31302 (antibody, human IgG4, V domains shown, consecutive numbering; also called VH-D54E/VL-N97S) VH: EVQLLESGGGLVQPGGSLRLSCAASGFTFSHYDMNWLRQAPGKGLEWVGVISYEGSNKFYADFVKGRFTISRDNSKNTLYLQMNSLRAEDTAVYYCARTPGSHFDYWGQGTLVTVSS VL: QSVLTQPPSASGTPGQRVTISCSGSSSNIGNNAVNWYQQLPGTAPKLLIYYDDLLPSGVPDRFSGSKSGTSASLAISGLRSEDEADYYCSAWDDSLSGVVFGGGTKLTVL
– | – | 43 | 40 | TPP-31310 (antibody, human IgG4, V domains shown, consecutive numbering; also called VH-G55S / VL-N97S) VH: EVQLLESGGGLVQPGGSLRLSCAASGFTFSHYDMNWLRQAPGKGLEWVGVISYDSSNKFYADFVKGRFTISRDNSKNTLYLQMNSLRAEDTAVYYCARTPGSHFDYWGQGTLVTVSS VL: QSVLTQPPSASGTPGQRVTISCSGSSSNIGNNAVNWYQQLPGTAPKLLIYYDDLLPSGVPDRFSGSKSGTSASLAISGLRSEDEADYYCSAWDDSLSGVVFGGGTKLTVL
– | – | 16 | 18 | TPP-31299 (antibody, human IgG4, V domains shown, consecutive numbering; also called VL-G98A) VH: EVQLLESGGGLVQPGGSLRLSCAASGFTFSHYDMNWLRQAPGKGLEWVGVISYDGSNKFYADFVKGRFTISRDNSKNTLYLQMNSLRAEDTAVYYCARTPGSHFDYWGQGTLVTVSS VL: QSVLTQPPSASGTPGQRVTISCSGSSSNIGNNAVNWYQQLPGTAPKLLIYYDDLLPSGVPDRFSGSKSGTSASLAISGLRSEDEADYYCSAWDDSLNAVVFGGGTKLTVL
– | – | 53 | 41 | TPP-31309 (antibody, human IgG4, V domains shown, consecutive numbering; also called VH-G55S / VL-N97Q) VH: EVQLLESGGGLVQPGGSLRLSCAASGFTFSHYDMNWLRQAPGKGLEWVGVISYDSSNKFYADFVKGRFTISRDNSKNTLYLQMNSLRAEDTAVYYCARTPGSHFDYWGQGTLVTVSS VL: QSVLTQPPSASGTPGQRVTISCSGSSSNIGNNAVNWYQQLPGTAPKLLIYYDDLLPSGVPDRFSGSKSGTSASLAISGLRSEDEADYYCSAWDDSLQGVVFGGGTKLTVL
– | – | 23 | 15 | TPP-31306 (antibody, human IgG4, V domains shown, consecutive numbering; also called VH-G55A / VL-N97S) VH: EVQLLESGGGLVQPGGSLRLSCAASGFTFSHYDMNWLRQAPGKGLEWVGVISYDASNKFYADFVKGRFTISRDNSKNTLYLQMNSLRAEDTAVYYCARTPGSHFDYWGQGTLVTVSS VL: QSVLTQPPSASGTPGQRVTISCSGSSSNIGNNAVNWYQQLPGTAPKLLIYYDDLLPSGVPDRFSGSKSGTSASLAISGLRSEDEADYYCSAWDDSLSGVVFGGGTKLTVL
– | – | 23 | 15 | TPP-31304 (antibody, human IgG4, V domains shown, consecutive numbering; also called VH-G55A) VH: EVQLLESGGGLVQPGGSLRLSCAASGFTFSHYDMNWLRQAPGKGLEWVGVISYDASNKFYADFVKGRFTISRDNSKNTLYLQMNSLRAEDTAVYYCARTPGSHFDYWGQGTLVTVSS VL: QSVLTQPPSASGTPGQRVTISCSGSSSNIGNNAVNWYQQLPGTAPKLLIYYDDLLPSGVPDRFSGSKSGTSASLAISGLRSEDEADYYCSAWDDSLNGVVFGGGTKLTVL
